Test [1] deals with Thyroid Stimulating Hormone (TSH) (UniProt P01215). Kind of test: FRET competition on Alexa488-labelled antigen; competitor BHQ-labelled ME130.
The target is the same in test [2]. Kind of test: i-STAT sandwich cartridge with TSH; capture beads TSH Ab 544, detection conjugate 414B. Also: test concentration or dose not given here.
The target is the same in test [3]. Kind of test: FRET competition on Alexa488-labelled antigen; competitor BHQ-labelled 5409.
Test [4] has as its target Follicle Stimulating Hormone (FSH) (UniProt P01215). Kind of test: i-STAT sandwich cartridge, 0.4 mIU/L TSH plus FSH, signal gain over TSH alone; capture 94544, detection 414B.
Test [5] concerns the target Chorionic Gonadotropin (CG) (UniProt P01215). Kind of test: i-STAT sandwich cartridge, 0.4 mIU/L TSH plus CG, signal gain over TSH alone; capture 94544, detection 414B.
Test [6] has as its target Thyroid Stimulating Hormone (TSH) (UniProt P01215). Kind of test: i-STAT sandwich cartridge with TSH; capture beads TSH Ab 544, detection conjugate 5409. Also: test concentration or dose not given here.
In test [7] the target is Luteinizing Hormone (LH) (UniProt P01215). Kind of test: i-STAT sandwich cartridge, 0.4 mIU/L TSH plus LH, signal gain over TSH alone; capture 94544, detection 414B.
Test [8] deals with Thyroid Stimulating Hormone (TSH) (UniProt P01215). Kind of test: FRET competition on Alexa488-labelled antigen; competitor BHQ-labelled M4.
Test [9] has the same target. Kind of test: FRET competition on Alexa488-labelled antigen; competitor BHQ-labelled TSH Ab 544.
The target is the same in test [10]. Kind of test: FRET competition on Alexa488-labelled antigen; competitor BHQ-labelled 414B.
Test [11] has the same target. Kind of test: FRET competition on Alexa488-labelled antigen; competitor BHQ-labelled T25C.
For test [12] the target is unchanged. Kind of test: i-STAT sandwich cartridge with TSH; capture beads TSH Ab 544, detection conjugate M4. Also: test concentration or dose not given here.
For test [13] the target is unchanged. Kind of test: i-STAT sandwich cartridge with TSH; capture beads TSH Ab 544, detection conjugate ME130. Also: test concentration or dose not given here.
In test [14] the target is Chorionic Gonadotropin (CG) (UniProt P01215). Kind of test: FRET quenching titration, BHQ-10 antibody and Alexa Fluor 488 antigen.
Test [15] concerns the target Thyroid Stimulating Hormone (TSH) (UniProt P01215). Described as above.
In test [16] the target is Follicle Stimulating Hormone (FSH) (UniProt P01215). The test is described as above.
Test [17] deals with Luteinizing Hormone (LH) (UniProt P01215). Described as above.
Test [18] concerns the target Thyroid Stimulating Hormone (TSH) (UniProt P01215). Kind of test: i-STAT sandwich cartridge with TSH; capture beads TSH Ab 544, detection conjugate T25C.

Consider “TSH Ab 544 (Abbott Diagnostics Division) (antibody)”, for which the relative fluorescence in test [1] turned out to be 0.72 normalized; in [3] it was 0.96 normalized; in test [8], 0.92 normalized; in test [9], 1 normalized; in test [10] it was 0.89 normalized; in test [11], 0.71 normalized. Besides, the electrochemical current in test [2] amounted to 25 nA; in test [6], 7.98 nA; in [12] it was 0.11 nA; in test [13], 34.9 nA; in [18], 22.4 nA. For the same substance, in test [4], the FSH CR (%) came to 7.15%. In addition, the CG CR (%) in test [5] turned out to be 117%. Further, the LH CR (%) with Luteinizing Hormone (LH) [7] amounted to 11.8%. Further, the Kd in test [14] was 210 nM; in test [15] it was 1.31 nM; in test [16], 1000 nM; with Luteinizing Hormone (LH) [17], 1000 nM.
